The values below come from the DeepSol protein solubility set.

The data set in a line: soluble on expression in E. coli; label from the status in PepcDB or PDB records.
Regarding “MSLTTSPDARWTRRRTEKQRRLEQVRTLADGVVLPTDKIVAALEALLVSGDRVVLEGNNQKQADFLSRALAKVDPGKVHDLHMIMPSVGRAEHLDLFEQGIARKLDFSFAGTQSLRISQLLEDGLLEIGAIHTYIELYSRLVVDLIPNVVLAAGFMADRAGNIYTGPSTEDTPALIEPAAFSDGIVIVQVNQLVDDVSELPRVDIPASWVDFVVVADKPFYIEPLFTRDPRHIKPVHVLMAMMAIRGIYEKHNVQSLNHGIGFNTAAIELILPTYGESLGLKGKICRNWTLNPHPTLIPAIESGWVESVHCFGTELGMENYIAARPDVFFTGRDGSLRSNRQLCQLAGQYAVDLFIGATLQVDGDGHSSTVTRGRLAGFGGAPNMGHDPRGRRHATPAWLDMRQQNESGPDAYLERGKKLVVQMVETFQEGGKPTFVETLDAVEVAKKSGMPLAPIMIYGDDVTHLLTEEGIAYLYKARSLEERQAMIAAVAGVTVIGLRHNPKDTARMRREGLIALPEDLGIRRTDASREGHHHHHH”, the “soluble on expression in E. coli” value is listed as “not soluble”. For the sequence “MSLTVNNEISKAFSKHADDYERVAKVQKEIGSRLFERLQYLKIAPRRILDLGCGPGFFSKELALLYPKAQIVGMDLSFAMLEQARKKQGWRRKWPLVSADMQKMPFATGAFDLVFANQVIHWSSSLGMVFRELNRVMNVNGCLMFTTLGPDTFKELQTAWSAANQYAHVNEFVDMHDIGDCLIAEHFMDPVIDMELLSIHYETLPQLLLALKTQGVRNINPKRNHGLTGKSAWKQFEAQYATMRTTTGKYPLTYEVVYGQAWKGAQRKMEQGEGHHHHHH”, the “soluble on expression in E. coli” value is given as “not soluble”. Consider “MSLTVQDLHFKNKVNFIGGQYVPSNESDTIDILSPSTGKVIGEIPAGCKADAENALEVAQAAQKAWAKLTARTRQNMLRTFANKIRENKHILAPMLVAEQGKLLSVAEMEVDVTATFIDYGCDNALTIEGDILPSDNQDEKIYIHKVPRGVVVGITAWNFPLALAGRKIGPALITGNTMVLKPTQETPLATTELGRIAKEAGLPDGVLNVINGTGSVVGQTLCESPITKMITMTGSTVAGKQIYKTSAEYMTPVMLELGGKAPMVVMDDADLDKAAEDALWGRFANCGQVCTCVERLYVHASVYDEFMAKFLPLVKGLKVGDPMDADSQMGPKCNQREIDNIDHIVHEAIKQGATVATGGKTATVEGFEGGCWYEPTVLVDVKQDNIVVHEETFGPILPIVKVSSMEQAIEFCNDSIYGLSAYVHTQSFANINQAISDLEVGEVYINRGMGEQHQGFHNGWKQSGFGGEDGKFGLEQYLEKKTVYINEAEGHHHHHH”, for which the “soluble on expression in E. coli” value is “soluble”. For “MSLVDFIDDNRGEFGVEPICTVLRSAGLQVALSTYYDAKARVPSARALRDAVLGPALCQLWKDNYCVYGARKLWKTARRDGHDVGRDQVARLMRAAGIEGVRRGKRVRTTKADPAAARHPDLVHRNFAAAAPNQLWATDLTFVPTWAGVAYVCFIIDAHSRMIVGWRVASHMRTSMVLDALEMARWSRGTTLQDLICHSDAGSQFTSIRYGERLAEIGAVPSIGTVGDSFDNALAETVNGYYKAELIYGPARSRPWKTVEDVELATLSWVHWHNTSRLHSYLGDIPPTEFEAAFYDAYRTDQPLIGIQEGHHHHHH” the value was “not soluble”; for “MSLVENLSLEPQPKRRKIDPEVKESPSRNCSHWFVRNKVCASCNTIVDNYQGRSFDYLYTGIQMSNEALGFTKRLISQTSWLEDKKLHLVLDLDHTLVHTIKVSQLSESEKYITEEVESRKDLRRFNTGFPEESLIKLRSFVHQFLKECNEMFSLYVYTKGGYDYAQLVLEMIDPDKIYFGNRVITRRESPGFKTLDLVLADERGIVVVDDKSSVWPHDKKNLLQIARYKYFGDQSCLLSECKKKIDESDEKGPLNTALRFLMDVHEEFFCDWSRKDLDSVDVRPLLKEISLRWKRKADGVV”, “soluble”; for “MSLVHPAGMAIMISGGIVQKIAPSDDILSEFAPWYPANSVSTDVEVIDIGEMSVVPGFVDSHTHLPWSGDRTNELTMRLRGKTYREIAQSGGGIMKTVSHTRSTPKRNLVASGISRVQECMRNGTTTLEAKSGYGLDLDSEVKLLEAISEIDRSTAIDIRATWLGAHDFPPEMGREDYVEHLISDQLPVISELSLARWVDVFCEQGWFTNEQTEDIVKASKDYGMKSRLHVDEFVDSGGLALAAELGSVSADHVACSNDDSRVSAAESGTVQTFLPGTPYVLGKSLELPIKKCITEDWPFSIATDFNPNCPITSLPLIGSFVTHRLGVDPIASLVAVTRNPATTMFDEEEPRGVISEGSIADMNVLWSSSADSWCQTPGSSPVRDTIKNGIIVNSNKTYEGHHHHHH”, “soluble”. For “MSLVKPKYQRVVLKLSGEALAGEDGFGIKPPVIKEIVQEIKEVHELGIEMAIVVGGGNIWRGQIGAQMGMERAQADYMGMLATVMNALALQDTLENLGVPTRVQTSIEMRQIAEPYIRRRAERHLEKGRVVIFAGGTGNPYFSTDTTAALRAAEVDADVILMAKNNVDGVYSADPRVDETATKFEELTHLDVISKGLQVMDSTASSLSMDNDIPLVVFNLNEAGNIRRAILGENIGTTVRGKEGHHHHHH” the value was “soluble”; for “MSLVMWLMAHSEKLEDLLEGKPVVIIEDGELAWSKLNNSNMTEFEFFMELRLRGVEQLGQVRLAILETNGQISVYFFEDDKVKPGLLILPSDCTQRYKVVPESADYACIRCSEIIHMNAGEKQLCPRCANPEWTKASRAKRVTEGHHHHHH”, “soluble”.

“MSLVNMEFLKRSFAPLTEKQWQEIDNRAREIFKTQLYGRKFVDVEGPYGWEYAAHPLGEVEVLSDENEVVKWGLRKSLPLIELRATFTLDLWELDNLERGKPNVDLSSLEETVRKVAEFEDEVIFRGCEKSGVKGLLSFEERKIECGSTPKDLLEAIVRALSIFSKDGIEGPYTLVINTDRWINFLKEEAGHYPLEKRVEECLRGGKIITTPRIEDALVVSERGGDFKLILGQDLSIGYEDREKDAVRLFITETFTSRLSTRRPEGHHHHHH”: the “soluble on expression in E. coli” value is “soluble”. For “MSLVRTALTIAGSDSGGGAGIEADLKTFTAFGVHGLVAITSVTAQNTQTVTAIHDIPPEVVSEQIRVVAEDIGVDAAKTGMLSNAEIIKAVAKTVKNYDFPLVVDPVMIAKSGAPLLREDAVDALIKYILPLATLVTPNRFEAEKLTGMEIRNVNDAKLAAKKIAEETGAKAVIVKGGHLEGKEAIDVLYHNGAYKLYRAPKVDGCTHGTGCSFSAAITANLAKGLSLEDAVSVAKEFITLGISTGHKIGHGHCPVNQSAWIEIPAEKWRIYEELTRAVREFERINPIKLIPEVGTNFVYALPFPYARTKEDVAGVKGRIVRVGNEVRAVGSVEFGASDHLARAILTFMRFYPKYRSAINVRYSEEIVELAKEQGFTVSFYDRREEPIEVKEKEGATIPWGIEVAVKRINKRPDVIYHLGDIGKEPMILIFGRNPREVLDKLRLLEGHHHHHH” the value was “soluble”. For “MSLVTFSIRIISSDRIFLVAEVKALERVYVIGHKNPDTDSVCSAIGYAHFKNNVEKGKTFIPARSGDLTNESLFVLKYFGMNPPLHIETLEPTVEDLELKNPIFVTPDTSAYDVAMLMESRGIKNVPVVSKEKMIGVVTESNIARVYVRRLKIEPLVIHPVPFDQLVRILKAEVVCDYMKEKTVSGKVHIAVDALHVLLGKIEIGDVVIVGDNEPAQIALLEKGAKLMIVVNNAPVSNRVLEIAKEKNAAVLRVKFDAFSAAKLINLSLPVTLVMSKKFPTVTKKDTLEEVKEIVFTSKIRAAFVEDEKGRLCGVITRTDLLKDVRKKVILVDHNEITQAPEGVEKAEILEIIDHHRLGGLSTLNPVFFYNEPVGSTSTIVAEFFLKNGVKMEREIAGILLSGIVSDTLFFKLSTTTEKDRKMANFLADVAKLDLEKFAKKLLKEGMKIPEDVDPAELLKRDVKVYEMGEESFAVSQIMTSDFSTLLKEKERFMNTLKTLKGEFGVKHFFVLFTNPVEEASLLMMDGDQKLVEKAFNAEKKDGLFLLKGVMSRKKDFVPKIGEVLRREREGHHHHHH” the value was “soluble”; for “MSLVTIKDVALKAGVSPSTVSRVIKGNKRISEATISKVKKVMEELNYFPNTAARTLITNQTYKIGLVLKGSEEPIRLNPFYINVLLGISETCNQHGYGTQTTVSNNMNDLMDEVYKMIKQRMVDAFILLYSKENDPIKQMLIDESMPFIVIGKPTSDIDHQFTHIDNDNILASENLTRHVIEQGVDELIFITEKGNFEVSKDRIQGFETVASQFNLDYQIIETSNEREVILNYMQNLHTRLKDPNIKQAIISLDAMLHLAILSVLYELNIEIPKDVMTATFNDSYLTEIASPPQTCIDIKPRMLGQQAGSAILNILKNKAQDVIELVIIDTELKIRKSTQREGHHHHHH”, “soluble”; for “MSLVTVDQKPNLIRHLHDLSGVWQTDITYIQLTNHRWVYLATVLDPEKRKVLGYKIGDTMTAELATSALQMALDKHRKPLIIHSDMGSQYTSAEFNIKCQNYGLKHSYSLKGHPYDNGRMEAFHSILKREEVYLKAYQTLTEVQAAIGWYINFYNRNRISNVAEGHHHHHH”, “not soluble”. Turning to “MSLWLPSEATVYLPPVPVSKVVSTDEYVARTNIYYHAGTSRLLAVGHPYFPIKKPNNNKILVPKVSGLQYRVFRIHLPDPNKFGFPDTSFYNPDTQRLVWACVGVEVGRGQPLGVGISGHPLLNKLDDTENASAYAANAGVDNRECISMDYKQTQLCLIGCKPPIGEHWGKGSPCTQVAVQPGDCPPLELINTVIQDGDMVDTGFGAMDFTTLQANKSEVPLDICTSICKYPDYIKMVSEPYGDSLFFYLRREQMFVRHLFNRAGTVGENVPDDLYIKGSGSTANLASSNYFPTPSGSMVTSDAQIFNKPYWLQRAQGHNNGICWGNQLFVTVVDTTRSTNMSLCAAISTSETTYKNTNFKEYLRHGEEYDLQFIFQLCKITLTADVMTYIHSMNSTILEDWNFGLQPPPGGTLEDTYRFVTSQAIACQKHTPPAPKEDPLKKYTFWEVNLKEKFSADLDQFPLGRKFLLQLGLKAKPKFTLGKRKATPTTSSTSTTAKRKKRKL”, the “soluble on expression in E. coli” value was “soluble”. To “MSLYAAYAGNLDARLMTRRAPHSPLRATGWLNGWRLTFGGEHMGWEGALATLVEDPISQVFVSLYDIAPMDEDSLDRWEGVGLDIYRRTRVRIHTLDGEEGAWTYVLNAYEGGLPSARYLGEIADAAESSGAPHDYVMELRKRPCLEHHHHHH” belongs “not soluble”. For the sequence “MSLYAAYAGNLDPRLMTRRAPHSPLRATGWLNDWRLTFGGEHMGWEGALATIVEAPRSQVFVALYDIAPMDEDSMDRWEGVGLDIYRRMRVRVHTLEGEEAAWVYVLNGYEGGLPSARYLGELADAAESAGAPHDYVMELRKRPCLEHHHHHH”, the “soluble on expression in E. coli” value was “soluble”.

For the sequence “MSLYIETVRGKIKPEEFGVCACHEHLHIDLSRIKNDSDTALVEVALVLSDLKSFVSHGGQAIVDVTNDGMGRDVEKLVVMSEALDLHIVASTGCYKDPFIPEEKQMWTREQFAEWMIDEIMYGISGTTVKPGVIGEIGSSLNEFKPVELELFYGAIEAAKTTKLPLSTHTTLGTLAMEQIRLFDSESLPLDQVIIGHQDLNDDDEQVLKVLSTGAYVALDTIGKENYRSDEARLNSLLLFLEKGYEDQLLLSSDVTRTSHLLVHGGQGYDVVLRSFIPKLRAKGADEATIQKLLVKTHKKHLASREGHHHHHH”, the “soluble on expression in E. coli” value is on record as “not soluble”. For “MSLYISSALGPVDSGNKKEIEVEIPKGSSTSKIGEILEEKGAVKSGTVFSFYTKAKSKNLQAGTYLLNPSMSAKDVMEQMSSGNVHRPALYKVTIKEGAQVTEIAETVANELKWNKDDVVRQLNDKAFIQKMQQKYPKLLTDKIFDSNIKYPLEGYLYPATYSFYKKDTTLEEVVIPMLEKTNAIIVQNEAKMKAKNWDVHQLLTLSSLIEEEATGFTDRQKISSVFYNRLAKGMPLQTDPTVLYALGKHKQRVLYEDLKVNSPYNTYVVKGLPVGPIANSGKHSVEAALEPTQTDYYYFLAAPTGEVYYAKTLEEHNALKQKYITKKQEGHHHHHH” the value was “soluble”.
